Measured values as given in the supplement of paper PMC7877785.
± gives the uncertainty stated by the source.

Assay: self-splicing fitness, log relative to wild type (ln ratio); higher = more splicing; Tetrahymena group I intron in knt gene, E. coli kanamycin selection, DiMSum; sequences stand for … in CUCUCU…GGAGGGAAAAGUUAUCAGGCAUGCACCUGGUAGCUAGUCUUUAAACCAAUAGAUUGCAUCGGUUUAAAAGGCAAGACCGUCAAAUUGCGGGAAAGGGGUCAACAGCCGUUCAGUACCAAGUCUCAGGGGAAACUUUGAGAUGGCCUUGCAAAGGGUAUGGUAAUAAGCUGACGGACAUGGUCCUAACCACGCAGCCAAGUCCUAAGUCAACAGAUCUUCUGUUGAUAUGGAUGCAGUUCACAGACUAAAUGUCGGUCGGGGAAGAUGUAUUCUUCUCAUAAGAUAUAGUCGGACCUCUCCUUAAUGGGAGCUAGCGGAUGAAGUGAUGCAACACUGGAGCCGCUGGGAACUAAUUUGUAUGCGAAAGUAUAUUGAUUAGUUUUGGAGUACUCGUGGUCG
Method in brief: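 Library with all eight P1ex-region intron nucleotides randomised, intron inside the knt kanamycin-resistance gene on pET-22b(+), in E. coli BL21(DE3). Cells grew overnight at 37°C or 30°C on LB agar with or without 25 μg/mL kanamycin (plus 100 μg/mL carbenicillin, 50 μM IPTG, 0.2% rhamnose), in six replicate transformations. Pooled colonies were amplicon-sequenced on Illumina HiSeq 2500. DiMSum fitness is the error-weighted combination of wild-type-normalised replicate fold changes, kanamycin versus none.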

Sequence	self-splicing fitness (ln) (30 °C)	self-splicing fitness (ln) (37 °C)
UGUAAGCAAUAUUACGAUUU	-1.82 ± 0.17	-1.24 ± 0.14
UGUAAGCAAUAUUACGCAAC	-3.15 ± 0.31	-1.79 ± 0.29
UGUAAGCAAUAUUACGCACA	-1.44 ± 0.13	-0.574 ± 0.17
UGUAAGCAAUAUUACGCGAG	-3.32 ± 0.27	-1.56 ± 0.17
UGUAAGCAAUAUUACGCGUU	-2.69 ± 0.26	-0.234 ± 0.2
UGUAAGCAAUAUUACGGACU	-0.351 ± 0.094	0.0199 ± 0.11
UGUAAGCAAUAUUACGGCAU	-1.48 ± 0.12	-0.402 ± 0.11
UGUAAGCAAUAUUACGGCCG	-0.494 ± 0.17	-0.516 ± 0.25
UGUAAGCAAUAUUACGGCCU	-1.08 ± 0.1	-0.452 ± 0.12
UGUAAGCAAUAUUACGGCGU	-0.483 ± 0.1	-0.397 ± 0.12
UGUAAGCAAUAUUACGGGAC	-2.45 ± 0.25	-2.62 ± 0.44
UGUAAGCAAUAUUACGGUAA	-1.8 ± 0.2	-0.586 ± 0.12
UGUAAGCAAUAUUACGUAUU	-2.86 ± 0.11	-0.873 ± 0.083
UGUAAGCAAUAUUACGUCCA	0.388 ± 0.1	-0.132 ± 0.12
UGUAAGCAAUAUUACGUGAG	-1.07 ± 0.047	-0.92 ± 0.077
UGUAAGCAAUAUUACGUGCC	-1.46 ± 0.2	-0.0201 ± 0.22
UGUAAGCAAUAUUACGUGGG	-3.6 ± 0.19	-2.42 ± 0.22
UGUAAGCAAUAUUACGUUAA	-2.04 ± 0.13	-0.926 ± 0.12
UGUAAGCAAUAUUACGUUCU	-0.123 ± 0.085	-0.0225 ± 0.1
UGUCAGCAAUAUUACGACAU	-3.964 ± 0.028	-2.58 ± 0.04
UGUCAGCAAUAUUACGAUAG	-0.276 ± 0.072	0.347 ± 0.088
UGUCAGCAAUAUUACGAUCA	-0.048 ± 0.086	-0.0719 ± 0.11
UGUCAGCAAUAUUACGCCGG	-2.61 ± 0.5	-0.725 ± 0.36
UGUCAGCAAUAUUACGCUAU	-1.83 ± 0.11	-1.3 ± 0.12

Sequence	self-splicing fitness (ln) (30 °C)	self-splicing fitness (ln) (37 °C)
UGUCAGCAAUAUUACGGCAA	-0.754 ± 0.075	-0.0955 ± 0.098
UGUCAGCAAUAUUACGGGGG	-2.6 ± 0.14	-1.64 ± 0.15
UGUCAGCAAUAUUACGUACG	-0.208 ± 0.15	0.45 ± 0.15
UGUCAGCAAUAUUACGUCCA	-0.159 ± 0.094	-0.505 ± 0.12
UGUCAGCAAUAUUACGUUUU	-3.83 ± 0.2	-2.23 ± 0.14
UGUGAGCAAUAUUACGAAAU	-3.01 ± 0.18	-3.22 ± 0.35
UGUGAGCAAUAUUACGAAUU	-4.64 ± 0.46	-1.8 ± 0.45
UGUGAGCAAUAUUACGAGUG	-1.4 ± 0.071	-1.16 ± 0.08
UGUGAGCAAUAUUACGAUCA	-0.397 ± 0.23	-0.874 ± 0.32
UGUGAGCAAUAUUACGCAAC	-2.24 ± 0.28	-2.4 ± 0.46
UGUGAGCAAUAUUACGCACA	-2.63 ± 0.29	-2.84 ± 0.34
UGUGAGCAAUAUUACGCCCU	-1.54 ± 0.44	-0.113 ± 0.36
UGUGAGCAAUAUUACGCCGA	-3.5 ± 0.39	-1.77 ± 0.27
UGUGAGCAAUAUUACGCCUA	-0.115 ± 0.23	–
UGUGAGCAAUAUUACGCGAG	-2.69 ± 0.22	-1.63 ± 0.23
UGUGAGCAAUAUUACGCGCU	-2.53 ± 0.27	-3.1 ± 0.37
UGUGAGCAAUAUUACGCGUA	-2.35 ± 0.34	-0.703 ± 0.27
UGUGAGCAAUAUUACGGCAC	-3.21 ± 0.23	-2.21 ± 0.23
UGUGAGCAAUAUUACGGGCA	-0.886 ± 0.069	-0.176 ± 0.081
UGUGAGCAAUAUUACGGGGU	-3.98 ± 0.21	-2.75 ± 0.28
UGUGAGCAAUAUUACGGGUC	-4.25 ± 0.33	-2.41 ± 0.19
UGUGAGCAAUAUUACGGUUU	-3.66 ± 0.21	-2.65 ± 0.25
UGUGAGCAAUAUUACGUAAU	–	-2.2 ± 0.27
UGUGAGCAAUAUUACGUACC	-1.1 ± 0.23	-0.269 ± 0.28

Sequence	self-splicing fitness (ln) (30 °C)	self-splicing fitness (ln) (37 °C)
UGUGAGCAAUAUUACGUAGA	–	-0.751 ± 0.44
UGUGAGCAAUAUUACGUAGG	-3.5 ± 0.16	-1.5 ± 0.14
UGUGAGCAAUAUUACGUAUG	-1.22 ± 0.1	-1.26 ± 0.12
UGUGAGCAAUAUUACGUCAA	-3.68 ± 0.35	-2.65 ± 0.31
UGUGAGCAAUAUUACGUCAG	-1.88 ± 0.3	-1.02 ± 0.24
UGUGAGCAAUAUUACGUCCA	-0.973 ± 0.13	-0.0412 ± 0.16
UGUGAGCAAUAUUACGUCUG	-0.95 ± 0.15	-0.000357 ± 0.17
UGUGAGCAAUAUUACGUGCG	-1.36 ± 0.11	-1.06 ± 0.14
UGUGAGCAAUAUUACGUGGG	-3.67 ± 0.25	-2.34 ± 0.15
UGUGAGCAAUAUUACGUUAU	-4.11 ± 0.28	-3.51 ± 0.28
UGUGAGCAAUAUUACGUUGA	-2.82 ± 0.14	-2.11 ± 0.15
UGUUAGCAAUAUUACGAAUG	-1.1 ± 0.097	-0.239 ± 0.13
UGUUAGCAAUAUUACGAUAU	-2.45 ± 0.21	-0.289 ± 0.25
UGUUAGCAAUAUUACGCCAG	-1.36 ± 0.23	-1.76 ± 0.35
UGUUAGCAAUAUUACGCCGG	-0.866 ± 0.13	-0.696 ± 0.19
UGUUAGCAAUAUUACGCCUG	0.435 ± 0.13	0.171 ± 0.17
UGUUAGCAAUAUUACGCUCA	0.179 ± 0.19	-0.292 ± 0.18
UGUUAGCAAUAUUACGCUGG	-3.77 ± 0.24	0.0911 ± 0.15
UGUUAGCAAUAUUACGGAUG	-1.89 ± 0.12	-0.39 ± 0.11
UGUUAGCAAUAUUACGGGAA	-1.84 ± 0.24	-0.696 ± 0.2
UGUUAGCAAUAUUACGGGUA	-0.939 ± 0.15	-1.4 ± 0.16
UGUUAGCAAUAUUACGGUGA	-1.51 ± 0.18	-0.192 ± 0.19
UGUUAGCAAUAUUACGUAAU	-2.96 ± 0.3	-1.02 ± 0.21
UGUUAGCAAUAUUACGUACC	-0.945 ± 0.14	0.399 ± 0.17

Sequence	self-splicing fitness (ln) (30 °C)	self-splicing fitness (ln) (37 °C)
UGUUAGCAAUAUUACGUAGC	–	-0.793 ± 0.22
UGUUAGCAAUAUUACGUCCA	-0.514 ± 0.071	0.305 ± 0.13
UGUUAGCAAUAUUACGUCCU	-1.31 ± 0.15	-0.516 ± 0.23
UGUUAGCAAUAUUACGUCUU	-2.21 ± 0.15	-1.46 ± 0.13
UGUUAGCAAUAUUACGUGGG	-3.19 ± 0.27	-2.89 ± 0.27
UGUUAGCAAUAUUACGUUUG	-2.14 ± 0.16	-1.26 ± 0.18
UUAAAGCAAUAUUACGAAAC	–	-1.33 ± 0.29
UUAAAGCAAUAUUACGAAUG	-0.609 ± 0.096	0.0465 ± 0.14
UUAAAGCAAUAUUACGACCU	-0.0595 ± 0.074	0.121 ± 0.1
UUAAAGCAAUAUUACGACGG	-0.186 ± 0.091	0.75 ± 0.15
UUAAAGCAAUAUUACGACUA	0.243 ± 0.1	0.643 ± 0.14
UUAAAGCAAUAUUACGAGAA	-1.48 ± 0.096	-0.717 ± 0.12
UUAAAGCAAUAUUACGAGCC	-2.3 ± 0.15	-1.42 ± 0.27
UUAAAGCAAUAUUACGAGCG	-0.119 ± 0.086	0.287 ± 0.12
UUAAAGCAAUAUUACGCAAA	-1.1 ± 0.079	-0.177 ± 0.12
UUAAAGCAAUAUUACGCACG	-0.443 ± 0.092	0.47 ± 0.14
UUAAAGCAAUAUUACGCAGU	-3.1 ± 0.28	-1.36 ± 0.18
UUAAAGCAAUAUUACGCAUG	-0.545 ± 0.12	0.368 ± 0.13
UUAAAGCAAUAUUACGCCGC	-2.1 ± 0.39	0.305 ± 0.29
UUAAAGCAAUAUUACGCCGU	-0.966 ± 0.18	-0.394 ± 0.25
UUAAAGCAAUAUUACGCGAC	-2.19 ± 0.15	-1.72 ± 0.17
UUAAAGCAAUAUUACGCUCC	-1.79 ± 0.19	-1.08 ± 0.24
UUAAAGCAAUAUUACGCUGC	-2.18 ± 0.15	-2.71 ± 0.38
UUAAAGCAAUAUUACGGGCU	-2.46 ± 0.11	-0.716 ± 0.1
